The source of these data is the supplement of paper PMC10567573.

± gives the standard deviation.

A short description of this series: protein stability index of a GFP-peptide fusion (GPS, HEK-293T) (PSI 1-6); higher = more stable. Particulars: c terminus: a fixed tail appended.
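Note: 24-mer peptide tiles fused after GFP, lentivirally expressed, FACS-sorted into six equal bins by GFP/DsRed ratio, decoded by Illumina sequencing, PSI is the read-weighted mean bin number.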

As for PDQVAPFTFLQPLPLSPGVLSSTP [ATF4], the protein stability index reads like this: (treatment: DMSO) 3.44 ± 0.33; (treatment: MLN4924 1 uM, 8 h) 3.74 ± 0.19.

In the case of SYYDPGRLICDFPFDGLLEERALL [VPS39], the protein stability index is, setting by setting: (treatment: DMSO) 2.4 ± 0.34; (treatment: MLN4924 1 uM, 8 h) 2.68 ± 0.29.

For the sequence IEIEDEAEKWQKEKDRIKSFTTNE [TRIM29], the protein stability index is 4.94 ± 0.17 (treatment: DMSO) and 4.96 ± 0.16 (treatment: MLN4924 1 uM, 8 h).

Turning to SSLRRQFEFSVDSFQIVLDPMLDF [TENT5D], the protein stability index amounted to 2.41 ± 0.32 (treatment: DMSO) and 2.17 ± 0.25 (treatment: MLN4924 1 uM, 8 h).

With MFPGVLLPLLESCSVRPDASVSSH [TCF25], the protein stability index runs as follows: (treatment: DMSO) 2.62 ± 0.38; (treatment: MLN4924 1 uM, 8 h) 2.18 ± 0.2.

RLKEMKLLRDQFVKALEDFEDLCD [FAM9B]: the protein stability index (treatment: DMSO) is 2.27 ± 0.13 and the protein stability index (treatment: MLN4924 1 uM, 8 h) stood at 2.52 ± 0.38.

With RRMTVVGRLEGLIQPDDLINQLTF [FAF2], the protein stability index reads like this: (treatment: DMSO) 2.36 ± 0.2; (treatment: MLN4924 1 uM, 8 h) 2.33 ± 0.49.

As for ICLMCVHSLERAGSKQYSAAIAFT [SMG5], the protein stability index is 2.58 ± 0.33 (treatment: DMSO) and 2.42 ± 0.78 (treatment: MLN4924 1 uM, 8 h).

Sequence LGDMQTAREGAGLVVASGVIYCLG [KLHL12] had a protein stability index (treatment: DMSO) of 2.47 ± 0.45 and a protein stability index (treatment: MLN4924 1 uM, 8 h) of 2.29 ± 0.8.

With MRVDLRAGDEAVFAQYDSFHVDSA [TNXB], the protein stability index reads like this: (treatment: DMSO) 3.34 ± 0.56; (treatment: MLN4924 1 uM, 8 h) 3.22 ± 0.37.

The sequence YKIVKPLWTSFIQSVSYSKLLSVI [P2RY14] showed a protein stability index (treatment: DMSO) of 2.06 ± 0.16 and a protein stability index (treatment: MLN4924 1 uM, 8 h) of 2.36 ± 0.39.

With ETEARYSSQLAQMQCLISNVEAQL [KRT36], the protein stability index reads like this: (treatment: DMSO) 3.26 ± 0.31; (treatment: MLN4924 1 uM, 8 h) 3.2 ± 0.34.

Turning to MQGAYCTFPASVLAPVPTHSTVSE [DUSP5], the protein stability index by setting is: (treatment: DMSO) 3.47 ± 0.2; (treatment: MLN4924 1 uM, 8 h) 3.61 ± 0.17.

As for FYQHLLLYIQSHYQLELQCCIDWT [SMG5], the protein stability index by setting is: (treatment: DMSO) 3.17 ± 0.36; (treatment: MLN4924 1 uM, 8 h) 3.02 ± 0.38.

Consider NLFCVLRLVVEFPATGGAIPSWQI [PKD2L1], for which the protein stability index reads like this: (treatment: DMSO) 3.39 ± 0.28; (treatment: MLN4924 1 uM, 8 h) 3 ± 0.5.

Regarding GDTVVQGDLQETTVVTGLGPDTQD [PBXIP1], the protein stability index runs as follows: (treatment: DMSO) 5.56 ± 0.17; (treatment: MLN4924 1 uM, 8 h) 5.63 ± 0.23.

As to EVLRRLTSSVSCALDEAAAALTRM [ANKRD17], the protein stability index reads like this: (treatment: DMSO) 2.3 ± 0.53; (treatment: MLN4924 1 uM, 8 h) 2.1 ± 0.3.

In the case of VEQPKGTEVVRDAVRKLKFARHIK [GULP1], the protein stability index reads like this: (treatment: DMSO) 3.7 ± 0.11; (treatment: MLN4924 1 uM, 8 h) 3.77 ± 0.16.

In turn, RPRRYVQPPEMIGPMRPEQFSDEV [GAGE1] returned a protein stability index (treatment: DMSO) of 3.86 ± 0.26 and a protein stability index (treatment: MLN4924 1 uM, 8 h) of 4.41 ± 0.32.

Take RALQERLGQQQRDMRRDEEGSLCA [FBF1]: the protein stability index by setting is: (treatment: DMSO) 4.95 ± 0.36; (treatment: MLN4924 1 uM, 8 h) 5.03 ± 0.32.

With LTVYAWERGSMKTHFNTAQGFRTV [OAS1], the protein stability index amounted to 2.72 ± 0.57 (treatment: DMSO) and 2.52 ± 0.21 (treatment: MLN4924 1 uM, 8 h).

On to SEVSCKKRDDYLEWPEYFMAVAFL [DCTD], for which the protein stability index was determined as 2.15 ± 0.48 (treatment: DMSO) and 2.16 ± 0.26 (treatment: MLN4924 1 uM, 8 h).

With CPPLPAGVSFHIDSAELEPGSQTA [FBXO34], the protein stability index (treatment: DMSO) was 5.03 ± 0.4 and the protein stability index (treatment: MLN4924 1 uM, 8 h) was determined as 5.09 ± 0.2.

For DSQEAQSPGHSSAGQEGEDTLRRR [TOR1AIP2], the protein stability index reads like this: (treatment: DMSO) 5.58 ± 0.26; (treatment: MLN4924 1 uM, 8 h) 5.45 ± 0.58.

In the case of QAVSAPGILNRPPAPTATVPAPQP [ZNF207], the protein stability index runs as follows: (treatment: DMSO) 4.76 ± 0.17; (treatment: MLN4924 1 uM, 8 h) 4.91 ± 0.17.

On to VRKREAPAPEAESKQTEKDPGVQE [EFHC1], for which the protein stability index was found to be 5.47 ± 0.27 (treatment: DMSO) and 5.61 ± 0.34 (treatment: MLN4924 1 uM, 8 h).

On to MSDYRGFGIGSEILKNLSQVAMRC [SAT1], for which the protein stability index by setting is: (treatment: DMSO) 2.11 ± 0.48; (treatment: MLN4924 1 uM, 8 h) 2.46 ± 0.56.

With LGDSGLGPWQLNVFVCRVSAVLFY [P2RY14], the protein stability index is 3.32 ± 0.17 (treatment: DMSO) and 2.84 ± 0.42 (treatment: MLN4924 1 uM, 8 h).

Regarding DLYRDVMLENYSNLVSVGYQAGKP [ZNF649], the protein stability index was determined as 2.82 ± 0.53 (treatment: DMSO) and 2.85 ± 0.23 (treatment: MLN4924 1 uM, 8 h).

In the case of HCTVKLRQTTGLMEYCLEVIKEND [TRIM9], the protein stability index came out at 3.07 ± 0.29 (treatment: DMSO) and 3.32 ± 0.37 (treatment: MLN4924 1 uM, 8 h).

For the sequence KLTKESYPVVVAESMYGDFQEAMT [TENT5D], the protein stability index was 3.16 ± 0.2 (treatment: DMSO) and 3.41 ± 0.37 (treatment: MLN4924 1 uM, 8 h).

With PTPAKRRSSALWSEMLDITMKESL [NET1], the protein stability index (treatment: DMSO) is 2.71 ± 0.5 and the protein stability index (treatment: MLN4924 1 uM, 8 h) is 3.15 ± 0.48.
